The values that follow are results of earlier work, collected in article PMC10876095.

Read-outs that look alike come from different tables or passages of the source.

A word on the Kd: it is a measure of binding affinity in units of concentration.

Data set [1] deals with tau (Homo sapiens) (UniProt P10636).
The target is the same in data set [2]. As to the kind of experiment: SPR. (SPR reads the build-up and loss of mass on a sensor chip optically.)
For data set [3] the target is unchanged. The experiment in a line: SPR. This is another data set of the same source.

Chain of UniProt P10636 (P10636 2-758): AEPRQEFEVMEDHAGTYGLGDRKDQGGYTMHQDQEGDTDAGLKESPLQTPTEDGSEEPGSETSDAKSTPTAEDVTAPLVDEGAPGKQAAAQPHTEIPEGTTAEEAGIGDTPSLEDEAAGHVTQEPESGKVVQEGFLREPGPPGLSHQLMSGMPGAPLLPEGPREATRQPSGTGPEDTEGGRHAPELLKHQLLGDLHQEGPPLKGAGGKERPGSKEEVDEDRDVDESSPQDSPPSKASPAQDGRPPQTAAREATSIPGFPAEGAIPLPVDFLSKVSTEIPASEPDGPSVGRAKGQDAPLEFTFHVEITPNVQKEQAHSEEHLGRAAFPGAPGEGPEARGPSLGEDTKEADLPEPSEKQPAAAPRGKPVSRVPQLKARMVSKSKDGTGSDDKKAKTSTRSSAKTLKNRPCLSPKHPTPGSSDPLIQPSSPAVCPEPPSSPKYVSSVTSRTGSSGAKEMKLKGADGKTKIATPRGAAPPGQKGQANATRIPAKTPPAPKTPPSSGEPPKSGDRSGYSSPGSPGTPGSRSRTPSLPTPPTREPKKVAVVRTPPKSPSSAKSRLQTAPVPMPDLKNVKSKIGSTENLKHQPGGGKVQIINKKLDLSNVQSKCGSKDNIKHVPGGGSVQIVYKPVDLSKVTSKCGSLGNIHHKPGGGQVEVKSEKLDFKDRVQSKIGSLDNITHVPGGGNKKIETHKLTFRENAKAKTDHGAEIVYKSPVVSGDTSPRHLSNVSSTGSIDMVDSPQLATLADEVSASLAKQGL

Regarding 14-3-3ζ (from UniProt P63104), the figures for the Kd in the data set with tau (Homo sapiens) [1], with tau (Homo sapiens) [2] and with tau (Homo sapiens) [3] were 900 nM, 312 nM and 22 nM, respectively.
